The values below come from publication doi:10.1101/2021.08.02.454546 (bioRxiv, 2021).

For test [1], the target named is T1, SARS-CoV-2 S2 peptide #288 (1149-KEELDKYFKNHTSPD-1163) (SARS-CoV-2 (spike 1149-1163, matches …)).
T1 chain: KEELDKYFKNHTSPD
As to the kind of experiment: ELISA. The note with it: both partners purified.

Test [2] deals with T2, shorter version of peptide #289 (1153-DKYFKNHTSPD-1163) (SARS-CoV-2 (spike 1153-1163, matches …)).
T2 chain: DKYFKNHTSPD
As to the kind of experiment: SPR. The note with it: both partners purified.

B1: CV3–25 IgG (antibody, V domains shown)
VH: EVQLVESGAEVKKPGESLKISCKGSGYTFTRYWIGWVRQMPGKGLEWMGIIYPGDSDTRYSPSFQGHVTISADKSISTAYLQWNSLKASDTAMYYCARLPQYCSNGVCQRWFDPWGQGTLVTVSS
VL: EIVLTQSPSSVSASVGDRVTITCRASQGISSWLAWYQQKPGKAPKLLIYAASSLQSGVPSRFSGSGSGTDFTLTISSLQPEDFATYYCQQGNSFPYTFGQGTNLEIK
Regarding B1, the binding result in test [1] was “binds”. The same molecule had a Kd in test [2] of around 1000 nM.
